The labels stand for the following.
T1: human IL-18BP (human, UniProt O95998 31-194)
T1 construct: UniProt printed as 095998; also called hIL-18BP
T1 sequence: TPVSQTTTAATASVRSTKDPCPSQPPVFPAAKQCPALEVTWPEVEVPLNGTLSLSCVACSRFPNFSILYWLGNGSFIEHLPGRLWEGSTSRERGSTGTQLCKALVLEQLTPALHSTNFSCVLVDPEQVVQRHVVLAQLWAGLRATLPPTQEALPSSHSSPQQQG

B1: SA301a HC-N58R (antibody, name in Kabat numbering, V domains shown)
VH: QVQLQESGPGLVKPSQTLSLTCTVSGYSITSDYNSHWIRQPPGKGLEWIGYIHYSGSTRYNPSLKSRVTISRDTSKNQFSLKLSSVTAADTAVYYCARNYGSIYVNYFDYWGQGTLVTVSS
VL: EIVLTQSPATLSLSPGERATLSCSASSSVSYMYWYQQKPGQAPRPLIYRTSNLASGIPARFSGSGSGTDFTLTISSLEPEDFAVYYCQQYHSYPTFGGGTKVEIK
notes: IgG1 kappa
B2: SA301a HC-T57D (antibody, name in Kabat numbering, V domains shown)
VH: B1 VH with T58D, R59N
VL: B1 VL
notes: IgG1 kappa
B3: SA301a HC-N58S (antibody, name in Kabat numbering, V domains shown)
VH: B1 VH with R59S
VL: B1 VL
notes: IgG1 kappa
B4: SA301a HC-S56H (antibody, name in Kabat numbering, V domains shown)
VH: B1 VH with S57H, R59N
VL: B1 VL
notes: IgG1 kappa
B5: SA301a HC-S56G (antibody, name in Kabat numbering, V domains shown)
VH: B1 VH with S57G, R59N
VL: B1 VL
notes: IgG1 kappa
B6: SA301a HC-T57R (antibody, name in Kabat numbering, V domains shown)
VH: B1 VH with T58R, R59N
VL: B1 VL
notes: IgG1 kappa
B7: SA301a HC-S56I (antibody, name in Kabat numbering, V domains shown)
VH: B1 VH with S57I, R59N
VL: B1 VL
notes: IgG1 kappa
B8: SA301a HC-S54F (antibody, name in Kabat numbering, V domains shown)
VH: B1 VH with S55F, R59N
VL: B1 VL
notes: IgG1 kappa
B9: SA301a HC-S54D (antibody, name in Kabat numbering, V domains shown)
VH: B1 VH with S55D, R59N
VL: B1 VL
notes: IgG1 kappa
B10: SA301a HC-S56Y (antibody, name in Kabat numbering, V domains shown)
VH: B1 VH with S57Y, R59N
VL: B1 VL
notes: IgG1 kappa
B11: SA301a HC-S56A (antibody, name in Kabat numbering, V domains shown)
VH: B1 VH with S57A, R59N
VL: B1 VL
notes: IgG1 kappa
B12: SA301a HC-Y59K (antibody, name in Kabat numbering, V domains shown)
VH: B1 VH with R59N, Y60K
VL: B1 VL
notes: IgG1 kappa
B13: SA301a HC-S56F (antibody, name in Kabat numbering, V domains shown)
VH: B1 VH with S57F, R59N
VL: B1 VL
notes: IgG1 kappa
B14: SA301a HC-T57F (antibody, name in Kabat numbering, V domains shown)
VH: B1 VH with T58F, R59N
VL: B1 VL
notes: IgG1 kappa
B15: SA301a HC-T57M (antibody, name in Kabat numbering, V domains shown)
VH: B1 VH with T58M, R59N
VL: B1 VL
notes: IgG1 kappa
B16: SA301a HC-Y59G (antibody, name in Kabat numbering, V domains shown)
VH: B1 VH with R59N, Y60G
VL: B1 VL
notes: IgG1 kappa
B17: SA301a HC-T57Y (antibody, name in Kabat numbering, V domains shown)
VH: B1 VH with T58Y, R59N
VL: B1 VL
notes: IgG1 kappa
B18: SA301a HC-N58Y (antibody, name in Kabat numbering, V domains shown)
VH: B1 VH with R59Y
VL: B1 VL
notes: IgG1 kappa
B19: SA301a HC-S56M (antibody, name in Kabat numbering, V domains shown)
VH: B1 VH with S57M, R59N
VL: B1 VL
notes: IgG1 kappa
B20: SA301a HC-S56D (antibody, name in Kabat numbering, V domains shown)
VH: B1 VH with S57D, R59N
VL: B1 VL
notes: IgG1 kappa
B21: SA301a HC-S56R (antibody, name in Kabat numbering, V domains shown)
VH: B1 VH with S57R, R59N
VL: B1 VL
notes: IgG1 kappa
B22: SA301a HC-T57V (antibody, name in Kabat numbering, V domains shown)
VH: B1 VH with T58V, R59N
VL: B1 VL
notes: IgG1 kappa
B23: SA301a HC-N58T (antibody, name in Kabat numbering, V domains shown)
VH: B1 VH with R59T
VL: B1 VL
notes: IgG1 kappa
B24: SA301a HC-Y59E (antibody, name in Kabat numbering, V domains shown)
VH: B1 VH with R59N, Y60E
VL: B1 VL
notes: IgG1 kappa
B25: SA301a HC-T57N (antibody, name in Kabat numbering, V domains shown)
VH: B1 VH with T58N, R59N
VL: B1 VL
notes: IgG1 kappa
B26: SA301a HC-N58V (antibody, name in Kabat numbering, V domains shown)
VH: B1 VH with R59V
VL: B1 VL
notes: IgG1 kappa
B27: SA301a HC-Y59D (antibody, name in Kabat numbering, V domains shown)
VH: B1 VH with R59N, Y60D
VL: B1 VL
notes: IgG1 kappa
B28: SA301a HC-T57I (antibody, name in Kabat numbering, V domains shown)
VH: B1 VH with T58I, R59N
VL: B1 VL
notes: IgG1 kappa
B29: SA301a HC-T57G (antibody, name in Kabat numbering, V domains shown)
VH: B1 VH with T58G, R59N
VL: B1 VL
notes: IgG1 kappa
B30: SA301a HC-T57S (antibody, name in Kabat numbering, V domains shown)
VH: B1 VH with T58S, R59N
VL: B1 VL
notes: IgG1 kappa
B31: SA301a HC-T57L (antibody, name in Kabat numbering, V domains shown)
VH: B1 VH with T58L, R59N
VL: B1 VL
notes: IgG1 kappa
B32: SA301a HC-S56T (antibody, name in Kabat numbering, V domains shown)
VH: B1 VH with S57T, R59N
VL: B1 VL
notes: IgG1 kappa
B33: SA301a HC-S56E (antibody, name in Kabat numbering, V domains shown)
VH: B1 VH with S57E, R59N
VL: B1 VL
notes: IgG1 kappa
B34: SA301a HC-S56L (antibody, name in Kabat numbering, V domains shown)
VH: B1 VH with S57L, R59N
VL: B1 VL
notes: IgG1 kappa
B35: SA301a HC-Y59F (antibody, name in Kabat numbering, V domains shown)
VH: B1 VH with R59N, Y60F
VL: B1 VL
notes: IgG1 kappa
B36: SA301a HC-S56P (antibody, name in Kabat numbering, V domains shown)
VH: B1 VH with S57P, R59N
VL: B1 VL
notes: IgG1 kappa
B37: SA301a HC-T57K (antibody, name in Kabat numbering, V domains shown)
VH: B1 VH with T58K, R59N
VL: B1 VL
notes: IgG1 kappa
B38: SA301a HC-T57Q (antibody, name in Kabat numbering, V domains shown)
VH: B1 VH with T58Q, R59N
VL: B1 VL
notes: IgG1 kappa
B39: SA301a HC-S56K (antibody, name in Kabat numbering, V domains shown)
VH: B1 VH with S57K, R59N
VL: B1 VL
notes: IgG1 kappa
B40: SA301a HC-T57E (antibody, name in Kabat numbering, V domains shown)
VH: B1 VH with T58E, R59N
VL: B1 VL
notes: IgG1 kappa
B41: SA301a HC-T57A (antibody, name in Kabat numbering, V domains shown)
VH: B1 VH with T58A, R59N
VL: B1 VL
notes: IgG1 kappa
B42: SA301a HC-S54A (antibody, name in Kabat numbering, V domains shown)
VH: B1 VH with S55A, R59N
VL: B1 VL
notes: IgG1 kappa
B43: SA301a HC-Y59A (antibody, name in Kabat numbering, V domains shown)
VH: B1 VH with R59N, Y60A
VL: B1 VL
notes: IgG1 kappa
B44: SA301a HC-S56V (antibody, name in Kabat numbering, V domains shown)
VH: B1 VH with S57V, R59N
VL: B1 VL
notes: IgG1 kappa

Changes are numbered by the printed parent chain. Values joined by “and” are separate entries in the source; they are usually repeats but may differ in a detail not shown here. Equal values may be shown once.

The assay has as its target T1, human IL-18BP. Description: BLI, apparent KD. (BLI is a label-free optical method that tracks binding on a fibre tip over time.)
With B1, the Kd was found to be 0.46 nM. The same measure for B2: 1.73 nM.

Regarding B3, the Kd came to 1.37 nM. For B4, the Kd worked out at 0.55 nM.

On to B5, for which the Kd came out at 0.46 nM.

As to B6, the Kd worked out at 0.67 nM. Regarding B7, the Kd came to 0.48 nM.

Take B8: the Kd amounted to 0.56 nM.

With B9, the Kd turned out to be 0.22 nM.

As for B10, the Kd turned out to be 1 nM. With B11, the Kd turned out to be 0.2 nM.

For the molecule B12, the Kd worked out at 0.12 nM. B13: the Kd was determined as 0.7 nM. With B14, the Kd was determined as 1.22 nM. Consider B15, for which the Kd turned out to be 0.18 nM. B16: the Kd is 1.59 nM.

Take B17: the Kd amounted to 1.74 nM. Regarding B18, the Kd came to 0.41 nM. The same measure for B19: 0.46 nM. As for B20, the Kd amounted to 0.62 nM. Take B21: the Kd is 0.17 nM. On to B22, for which the Kd turned out to be 0.36 nM.

Take B23: the Kd worked out at 0.47 nM.

Turning to B24, the Kd stood at 0.18 nM.

As for B25, the Kd was found to be 0.86 nM.

In the case of B26, the Kd stood at 0.44 nM. For B27, the Kd is 1.25 nM and 0.63 nM.

Consider B28, for which the Kd turned out to be 0.28 nM. The same measure for B29: 0.11 nM; for B30: 0.37 nM. On to B31, for which the Kd came to 0.32 nM. Turning to B32, the Kd is 0.45 nM. Take B33: the Kd came to 0.48 nM. As for B34, the Kd was 0.36 nM.

Take B35: the Kd stood at 0.87 nM.

In the case of B36, the Kd came out at 0.97 nM.

With B37, the Kd is 0.52 nM. On to B38, for which the Kd was 0.91 nM. For the molecule B39, the Kd is 0.64 nM.

On to B40, for which the Kd came out at 0.42 nM. For B41, the Kd was 0.9 nM. With B42, the Kd came to 0.11 nM.

Consider B43, for which the Kd came to 0.35 nM. For the molecule B44, the Kd was found to be 0.25 nM.
